Values quoted from earlier work in publication PMC5337993.

Target: Kv1.3 (Homo sapiens) (UniProt P22001)
Sequence of UniProt P22001 (P22001 whole entry): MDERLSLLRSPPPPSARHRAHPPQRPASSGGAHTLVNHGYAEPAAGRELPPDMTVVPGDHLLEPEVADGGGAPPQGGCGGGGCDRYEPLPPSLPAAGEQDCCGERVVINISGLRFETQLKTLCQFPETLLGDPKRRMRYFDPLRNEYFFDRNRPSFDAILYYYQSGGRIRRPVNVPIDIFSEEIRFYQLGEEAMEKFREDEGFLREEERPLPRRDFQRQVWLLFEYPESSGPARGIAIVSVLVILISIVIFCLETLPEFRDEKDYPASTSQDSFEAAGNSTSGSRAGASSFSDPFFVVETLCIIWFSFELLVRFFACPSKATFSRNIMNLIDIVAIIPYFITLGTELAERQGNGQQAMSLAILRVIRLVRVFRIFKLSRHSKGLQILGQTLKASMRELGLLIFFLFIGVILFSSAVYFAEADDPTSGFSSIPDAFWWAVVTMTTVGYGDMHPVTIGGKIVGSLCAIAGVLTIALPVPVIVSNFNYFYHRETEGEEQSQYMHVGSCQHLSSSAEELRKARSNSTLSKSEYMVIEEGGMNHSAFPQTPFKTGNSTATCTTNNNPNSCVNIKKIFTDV

In the case of ShK (from UniProt P29187), the Kd is given as 0.01 nM.
